Numbering of substitutions follows the chain as printed.
B1: VHH clone Ig-S506 (cluster Ig-7) (VHH)
VHH: QVQLVESGGGLVQAGGSLRLSCAASGFTFDDYVIGWFRQAPGKEREGVSCISSSDGSTNYADSVKGRFTISSDNAKNTVYLQMNSLKPEDTAVYYCAEGPTVLDGCIYDSGSYYFSWGQGTQVTVSS
B2: VHH clone Ig-S675 (cluster Ig-7) (VHH)
VHH: B1 VHH with S25T, P41S, S52R, S57D, N59Y, I70V, Y108V, G111E
B3: VHH clone Ig-S6584 (cluster Ig-7) (VHH)
VHH: B1 VHH with V33I, I34V, S52R, I70V, G111E
B4: VHH clone Ig-S8492 (cluster Ig-7) (VHH)
VHH: B1 VHH with S57R, N59D, E98A, D109Y
B5: VHH clone Ig-S1139 (cluster Ig-7) (VHH)
VHH: B1 VHH with N59Y, Y108V

Each binder was assayed against Fab of trastuzumab (human) (assay: SPR; Fab of trastuzumab amine-coupled to a CM5 chip (1,000 RU), VHH as analyte in a 1/2 dilution series; Biacore X100, HBS-EP (10 mM HEPES pH 7.4, 150 mM NaCl, 3 mM EDTA, 0.005% P20), 20°C, 10 µL/min, association 360 s, dissociation 800 s; 1:1 binding model).
B1 showed a Kd of 246 nM, a koff of 0.0073 s⁻¹ and a kon of 29700 M⁻¹ s⁻¹. B2 showed a Kd of 0.155 nM, a koff of 4.71e-05 s⁻¹ and a kon of 303000 M⁻¹ s⁻¹. Work on B3 yielded a Kd of 5.99 nM, a koff of 0.000221 s⁻¹ and a kon of 36900 M⁻¹ s⁻¹. B4 was tested, and the Kd was 123 nM, the koff was 0.000245 s⁻¹ and the kon was 1990 M⁻¹ s⁻¹. B5 gave a Kd of 233 nM, a koff of 0.00554 s⁻¹ and a kon of 23700 M⁻¹ s⁻¹.
